Laboratory results from the RNAGym collection of RNA variant scans (doi:10.1073/pnas.2313332121).
This sample holds only a part of the variants without activity.

B1: TPR 5TU (parent)
chain: GGAUCUUCUCGAUCUAACAAAAAAGACAAAUCUGCCACAAAGCUUGAGAGCAUCUUCGGAUGCAGAGGCGGCAGCCUUCGGUGGCGCGAUAGCGCCAACGUUCUCAACUAUGACACGCAAAACGCGUGCUCCGUUGAAUGGAGUUUAUCAUG

Variants of: B1
Experiment: polymerase ribozyme fitness, log enrichment relative to wild type (log ratio); higher = more active; in vitro selection for triplet polymerase activity
How it was run: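 PCR was used to build mutant libraries for each subunit of a heterodimeric triplet polymerase ribozyme, which were then transcribed. A single in vitro selection round, in triplicate, used a frozen incubation at −7 °C and recovered extended constructs by gel excision, streptavidin beads and RT-PCR. Fitness is the logarithm of genotype enrichment relative to wild-type enrichment, averaged over replicates with inverse-variance weights. The logarithm is base 2, and after Illumina sequencing only genotypes with ≥10 input reads and ≥1 read per output were kept.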

Variant	polymerase ribozyme fitness (log ratio)
U31A C69A C95A C116G	-2
U55A C87A	≤ -4.2
C14G C69G C96A G124A	-3.69
U82G C95A A110U A138U	≤ -4.2
U55A U144G	0.364
C18U G80U U148C	-3.99
A26C G84C C108G G133A	≤ -4.2
C72G A91C	≤ -4.2
C35U A41G C96A U144A	-0.485
G68C G83A	≤ -4.2
C32A U45G G46A C99G C103G U127C U148G	≤ -4.2
A41C C87A C95U A115C U151G	≤ -4.2
U56A C96U U145A G152A	-2
A20U A39U C51G A66C C93G U134A	≤ -4.2
A40U G48C C69G C85U	-1.48
A21C A24U C38G C93U G117A	-2.15
C93G A142U	-3.03
G84A A106G A142C	-0.922
U9A C18G A52G G58C A138G	≤ -4.2
C75U U134A	-1.13
A20C G42C G50U G84A C99A	≤ -4.2

Variant	polymerase ribozyme fitness (log ratio)
C85A G117A	-1.76
A29G A41C A60U C85G G86U C116G G133C A142G A150G	≤ -4.2
U53A A115U	-2.87
A29U A49C C63U C116U G133C U139A U146A	≤ -4.2
A12G C54U U61A C72A C96U A98U C99A A142C	≤ -4.2
A30C C57G C63U G65U C96U A97U	≤ -4.2
C18U A19U A64G A89G A119U U146C	≤ -4.2
A47C A49C U144G	-4
U7G U15A G59C G124C G136A	-3.25
U4C A19G C76G G86U A89G A106C U134G	≤ -4.2
A17G C18A G84C C93U	-3.84
C18G C27U A40U C51U A52C C57G G88U C105U	≤ -4.2
G48A C96U A98G	-0.496
G59A G140C U144G	-3.79
C32A G88C G141C	≤ -4.2
C8G A52C U55C G65A G83U C105U G143U	≤ -4.2
A41C C75U C87A U148A	≤ -4.2
A17G C93G	-2.89
U7G G83A A91U C131U	-3.4
A29U C35G C95G	-4.03
U55G G84U	-0.827

Variant	polymerase ribozyme fitness (log ratio)
U4G G25A U45G C87A C99A C103U C105G U139G G143A	-4.11
A26G A52G U90G U135A G136C	≤ -4.2
U61A A66U U82C G92C C95G	≤ -4.2
A29G C131U	≤ -4.2
C8U U33A A37C G50A A60U C72A G86A U90A A138G U151G	≤ -4.2
U4C	0.371
A47C G59A G84U G94U G124A	-3.56
U7A A22C A24U C54G G83A	≤ -4.2
G58U U82A A142G	-0.998
A12U U55A G59U A60G G94A	-0.00322
U56C C76A A122G	-0.262
A30U C87G U101G U146A C149G	≤ -4.2
U9A C35U U55A A91C	≤ -4.2
C87U U90C U134A A138U G143A	≤ -4.2
A60C U148G A150U	≤ -4.2
C93A G94A	-2.93
A39G G83A U101A	≤ -4.2
G42C C95A A142C	≤ -4.2
C57A U139A	-3.84
A21G A24G A47G G94C U102G C118U A121U	≤ -4.2
A23U A91G	≤ -4.2

Variant	polymerase ribozyme fitness (log ratio)
A40U C69A G143C	-2.79
A16U A19U A39U U61A A113G G128A G141C	≤ -4.2
A22U A26G A49U U102C A138G U144A	≤ -4.2
C32U G71C C103G A113G A121G U134C	≤ -4.2
A60U G136C U139G	-3.71
U4G C93U	-0.624
G48C C93G	-3.04
C35A G70A A89G G92A	≤ -4.2
A19U A49C C69U U77G C79A G84A C99A A113C C114G A142C	≤ -4.2
A52C U55A G62C G84A C105U C114U G141A C149A	≤ -4.2
U6G A19G A30U A119G	≤ -4.2
A3G C43U A60C G84A U130A	≤ -4.2
C14G C27G G94A	≤ -4.2
U15C A26C C36U G84A A147U	-3.47
C27U A29C G58C C85A U145A	≤ -4.2
U82G C118G	-1.09
U45A C93U A147U	-2.81
C54U U134A	-2.84
A29G A47C G70A C85G A89U A138C A142U	≤ -4.2
U55G C72U	-0.349
C8U A73U	-3.97
